Source: publication PMC11467669

Target: full-length USP8 (a.a. 7-1110) phosphorylated at S718 by AMPK (human) (UniProt P40818)
Assay: SEC-MALLS

full-length USP8 (a.a. 7-1110) phosphorylated at S718 by AMPK (human), sequence (P40818 7-1110): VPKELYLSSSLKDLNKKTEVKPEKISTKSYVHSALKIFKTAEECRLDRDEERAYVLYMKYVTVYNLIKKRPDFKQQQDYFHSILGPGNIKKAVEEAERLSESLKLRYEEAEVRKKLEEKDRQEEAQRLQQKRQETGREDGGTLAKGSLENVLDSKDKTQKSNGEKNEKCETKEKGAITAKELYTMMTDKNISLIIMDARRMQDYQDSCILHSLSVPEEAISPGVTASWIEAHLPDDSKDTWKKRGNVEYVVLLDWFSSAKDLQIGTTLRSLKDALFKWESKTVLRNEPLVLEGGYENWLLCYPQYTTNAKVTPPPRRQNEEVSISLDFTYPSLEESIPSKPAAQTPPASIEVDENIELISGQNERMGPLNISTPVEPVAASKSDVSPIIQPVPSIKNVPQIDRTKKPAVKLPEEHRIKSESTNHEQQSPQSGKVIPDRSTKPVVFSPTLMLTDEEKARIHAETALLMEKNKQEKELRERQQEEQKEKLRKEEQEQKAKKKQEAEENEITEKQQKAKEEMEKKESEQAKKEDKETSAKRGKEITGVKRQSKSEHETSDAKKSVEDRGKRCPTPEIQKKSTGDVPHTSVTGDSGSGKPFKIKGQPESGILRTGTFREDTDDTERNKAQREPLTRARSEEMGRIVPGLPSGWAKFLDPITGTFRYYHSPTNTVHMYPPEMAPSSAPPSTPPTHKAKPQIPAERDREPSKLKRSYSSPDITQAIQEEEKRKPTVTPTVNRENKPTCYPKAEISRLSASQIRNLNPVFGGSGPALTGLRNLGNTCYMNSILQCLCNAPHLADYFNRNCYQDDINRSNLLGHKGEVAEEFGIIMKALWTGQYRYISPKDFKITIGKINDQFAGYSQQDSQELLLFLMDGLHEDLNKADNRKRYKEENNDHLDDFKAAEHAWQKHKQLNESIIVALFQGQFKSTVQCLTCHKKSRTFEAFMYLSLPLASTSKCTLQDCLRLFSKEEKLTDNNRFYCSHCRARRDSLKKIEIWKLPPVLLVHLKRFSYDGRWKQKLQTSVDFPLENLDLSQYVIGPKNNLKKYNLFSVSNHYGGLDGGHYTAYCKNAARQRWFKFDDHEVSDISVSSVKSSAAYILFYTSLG

- stoichiometry N (14-3-3γ dimer per USP8): 1
Substance: 14-3-3γ (from UniProt P61981 1-247) (natural protein)
